Earlier results as cited in paper PMC12990809.

Experiments:
Assay in all cases: pulldown
Details in all cases: 20 nM protein, 1.5 uM RNA pool; 20 mM HEPES pH 7.8, 70 mM KCl, 10 mM NaCl, 10% glycerol, 2 mM DTT, 0.1 ug/uL BSA; 30 min, 4 C (protocol of this paper; not …); cited from earlier work
SRSF10 (Homo sapiens) = SRSF10 (Homo sapiens) (UniProt O75494)
[1] = target: T1, TVAG_267990 (Trichomonas vaginalis) (UniProt A2DLE8)
T1 sequence: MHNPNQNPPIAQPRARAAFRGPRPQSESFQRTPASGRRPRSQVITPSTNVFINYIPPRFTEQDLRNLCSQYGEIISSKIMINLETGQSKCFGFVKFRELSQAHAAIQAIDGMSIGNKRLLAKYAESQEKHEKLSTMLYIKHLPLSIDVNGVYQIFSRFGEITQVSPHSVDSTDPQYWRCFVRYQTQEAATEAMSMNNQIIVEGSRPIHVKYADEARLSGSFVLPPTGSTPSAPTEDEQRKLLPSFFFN

[2] = target: aret (Drosophila melanogaster) (UniProt C8VV87)
[3] = target: T2, Rb97D (Drosophila melanogaster) (UniProt Q02926)
T2 sequence: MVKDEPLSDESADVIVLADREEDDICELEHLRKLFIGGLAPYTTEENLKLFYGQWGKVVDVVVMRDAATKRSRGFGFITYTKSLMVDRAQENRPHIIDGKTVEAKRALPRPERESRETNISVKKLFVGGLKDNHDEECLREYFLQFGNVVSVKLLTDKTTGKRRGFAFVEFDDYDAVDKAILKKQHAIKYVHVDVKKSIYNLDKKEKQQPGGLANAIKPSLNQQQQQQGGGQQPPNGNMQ

[4] = target: T3, NEMVEDRAFT_v1g104011 (Nematostella vectensis) (UniProt A7S488)
T3 sequence: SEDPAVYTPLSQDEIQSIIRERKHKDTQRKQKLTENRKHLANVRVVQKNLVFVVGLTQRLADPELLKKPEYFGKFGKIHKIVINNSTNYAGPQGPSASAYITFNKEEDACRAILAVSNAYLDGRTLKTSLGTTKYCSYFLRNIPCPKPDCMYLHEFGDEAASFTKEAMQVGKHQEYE

[5] = target: T4, Tb09.211.0930 (Trypanosoma brucei) (UniProt Q38E63)
T4 sequence: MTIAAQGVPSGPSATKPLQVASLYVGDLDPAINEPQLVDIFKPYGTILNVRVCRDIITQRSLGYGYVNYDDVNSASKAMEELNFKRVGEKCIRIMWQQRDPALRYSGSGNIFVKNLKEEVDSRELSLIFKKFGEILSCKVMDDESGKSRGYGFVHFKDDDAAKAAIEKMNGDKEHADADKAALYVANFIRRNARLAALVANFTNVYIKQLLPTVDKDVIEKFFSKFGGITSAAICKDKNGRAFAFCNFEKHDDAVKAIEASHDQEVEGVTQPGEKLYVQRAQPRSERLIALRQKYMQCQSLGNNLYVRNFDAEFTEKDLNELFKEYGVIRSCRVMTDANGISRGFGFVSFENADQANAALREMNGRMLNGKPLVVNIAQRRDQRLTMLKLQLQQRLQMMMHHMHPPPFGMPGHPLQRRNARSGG

RBM47 (Gallus gallus) = target: T5, RBM47 (Gallus gallus) (UniProt A0A8V0YMK0)
T5 sequence: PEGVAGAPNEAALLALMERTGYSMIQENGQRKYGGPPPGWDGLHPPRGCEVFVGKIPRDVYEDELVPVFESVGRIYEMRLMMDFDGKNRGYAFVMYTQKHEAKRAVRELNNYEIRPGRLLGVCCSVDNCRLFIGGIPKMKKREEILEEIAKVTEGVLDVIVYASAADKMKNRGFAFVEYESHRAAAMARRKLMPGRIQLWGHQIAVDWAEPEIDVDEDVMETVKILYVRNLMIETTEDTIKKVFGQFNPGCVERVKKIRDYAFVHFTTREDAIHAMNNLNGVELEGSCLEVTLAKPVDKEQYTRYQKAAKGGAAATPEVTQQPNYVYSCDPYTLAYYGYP

ANKHD1 (Homo sapiens) = target: T6, ANKHD1 (Homo sapiens) (UniProt Q8IWZ3)
T6 sequence: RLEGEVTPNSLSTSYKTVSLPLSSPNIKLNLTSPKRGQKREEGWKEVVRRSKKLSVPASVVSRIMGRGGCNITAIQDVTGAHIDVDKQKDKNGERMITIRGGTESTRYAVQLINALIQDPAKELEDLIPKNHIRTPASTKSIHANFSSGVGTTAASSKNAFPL

[6] = target: e_gw1.09.00.326.1 (Ostreococcus tauri) (UniProt A0A090N3Z5)
[7] = target: T7, estExt_fgeneshHS_pg.C_730016 (Naegleria gruberi) (UniProt D2W041)
T7 sequence: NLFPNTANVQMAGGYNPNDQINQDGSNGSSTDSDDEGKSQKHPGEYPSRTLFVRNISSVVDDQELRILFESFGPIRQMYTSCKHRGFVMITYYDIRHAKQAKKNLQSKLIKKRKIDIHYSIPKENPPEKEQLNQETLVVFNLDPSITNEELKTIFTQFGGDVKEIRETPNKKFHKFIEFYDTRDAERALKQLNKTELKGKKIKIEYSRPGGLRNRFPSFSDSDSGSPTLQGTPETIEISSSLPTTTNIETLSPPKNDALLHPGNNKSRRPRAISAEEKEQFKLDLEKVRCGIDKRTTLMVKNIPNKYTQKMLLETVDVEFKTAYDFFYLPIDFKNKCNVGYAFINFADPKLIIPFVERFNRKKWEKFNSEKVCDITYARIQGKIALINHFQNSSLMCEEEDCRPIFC

[8] = target: T8, TVAG_129710 (Trichomonas vaginalis) (UniProt A2DI67)
T8 sequence: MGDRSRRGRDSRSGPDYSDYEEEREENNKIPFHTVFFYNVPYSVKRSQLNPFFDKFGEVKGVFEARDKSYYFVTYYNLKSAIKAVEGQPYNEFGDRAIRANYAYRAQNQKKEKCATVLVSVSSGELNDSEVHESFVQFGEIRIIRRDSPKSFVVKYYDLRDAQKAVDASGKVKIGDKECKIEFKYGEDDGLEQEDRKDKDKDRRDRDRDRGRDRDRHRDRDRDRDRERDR

PTBP1 (Homo sapiens) = PTBP1 (Homo sapiens) (UniProt P26599)
[9] = target: eIF-2alpha (Drosophila melanogaster) (UniProt P41374)
[10] = target: T9, LmjF.35.4130 (Leishmania major) (UniProt E9AFP0)
T9 sequence: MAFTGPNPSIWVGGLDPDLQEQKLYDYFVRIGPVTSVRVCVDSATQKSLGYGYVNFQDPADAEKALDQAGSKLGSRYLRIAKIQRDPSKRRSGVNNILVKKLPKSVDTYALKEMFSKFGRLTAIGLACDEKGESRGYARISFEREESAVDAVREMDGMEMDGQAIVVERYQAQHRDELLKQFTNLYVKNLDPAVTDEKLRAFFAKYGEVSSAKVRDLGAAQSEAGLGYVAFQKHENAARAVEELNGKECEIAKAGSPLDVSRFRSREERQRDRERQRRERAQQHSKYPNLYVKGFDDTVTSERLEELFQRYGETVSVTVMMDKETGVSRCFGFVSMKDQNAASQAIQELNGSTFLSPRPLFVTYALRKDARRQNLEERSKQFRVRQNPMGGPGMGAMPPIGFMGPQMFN

[11] = target: T10, tiar-1 (Caenorhabditis elegans) (UniProt Q95QV8)
T10 sequence: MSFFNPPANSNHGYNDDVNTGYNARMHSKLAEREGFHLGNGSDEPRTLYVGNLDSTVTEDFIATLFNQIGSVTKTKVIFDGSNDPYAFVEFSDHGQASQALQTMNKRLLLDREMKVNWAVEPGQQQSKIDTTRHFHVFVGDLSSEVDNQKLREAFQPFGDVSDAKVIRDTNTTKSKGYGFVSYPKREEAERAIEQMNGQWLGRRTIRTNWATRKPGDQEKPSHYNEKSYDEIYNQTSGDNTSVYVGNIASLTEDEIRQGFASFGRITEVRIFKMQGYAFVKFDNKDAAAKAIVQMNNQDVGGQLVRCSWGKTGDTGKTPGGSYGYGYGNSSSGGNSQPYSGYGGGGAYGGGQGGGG

[12] = target: T11, TVAG_002940 (Trichomonas vaginalis) (UniProt A2EZR7)
T11 sequence: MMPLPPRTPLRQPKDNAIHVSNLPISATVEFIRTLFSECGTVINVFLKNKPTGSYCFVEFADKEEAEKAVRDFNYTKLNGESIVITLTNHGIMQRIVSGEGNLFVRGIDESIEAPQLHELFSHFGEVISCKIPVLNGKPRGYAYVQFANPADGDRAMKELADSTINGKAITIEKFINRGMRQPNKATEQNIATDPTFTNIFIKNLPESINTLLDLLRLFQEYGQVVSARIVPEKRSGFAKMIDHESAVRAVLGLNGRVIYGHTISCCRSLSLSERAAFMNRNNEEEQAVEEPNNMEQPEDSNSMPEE

[13] = target: T12, e_gw1.03.00.367.1 (Ostreococcus tauri) (UniProt Q01DB3)
T12 sequence: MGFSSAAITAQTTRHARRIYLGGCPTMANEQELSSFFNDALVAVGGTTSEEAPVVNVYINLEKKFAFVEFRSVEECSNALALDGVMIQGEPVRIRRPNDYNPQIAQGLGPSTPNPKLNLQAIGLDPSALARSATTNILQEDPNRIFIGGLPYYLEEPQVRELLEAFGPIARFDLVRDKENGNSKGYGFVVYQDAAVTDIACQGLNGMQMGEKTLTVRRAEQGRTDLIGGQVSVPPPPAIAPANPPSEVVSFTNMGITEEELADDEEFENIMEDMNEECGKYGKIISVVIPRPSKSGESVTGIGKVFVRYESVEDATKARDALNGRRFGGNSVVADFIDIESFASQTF

[14] = target: T13, rbm47 (Xenopus tropicalis) (UniProt A0A8J0QCA8)
T13 sequence: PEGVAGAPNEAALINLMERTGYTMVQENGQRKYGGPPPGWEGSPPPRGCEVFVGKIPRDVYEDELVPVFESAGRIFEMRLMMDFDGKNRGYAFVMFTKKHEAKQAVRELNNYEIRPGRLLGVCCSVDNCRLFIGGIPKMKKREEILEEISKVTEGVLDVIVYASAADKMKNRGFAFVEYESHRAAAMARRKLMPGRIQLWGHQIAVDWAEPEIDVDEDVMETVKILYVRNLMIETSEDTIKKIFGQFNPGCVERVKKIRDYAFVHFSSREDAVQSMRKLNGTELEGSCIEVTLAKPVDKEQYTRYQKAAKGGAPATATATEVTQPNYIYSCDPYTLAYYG

[15] = target: T14, syncrip (Xenopus tropicalis) (UniProt A0A8J0QJ86)
T14 sequence: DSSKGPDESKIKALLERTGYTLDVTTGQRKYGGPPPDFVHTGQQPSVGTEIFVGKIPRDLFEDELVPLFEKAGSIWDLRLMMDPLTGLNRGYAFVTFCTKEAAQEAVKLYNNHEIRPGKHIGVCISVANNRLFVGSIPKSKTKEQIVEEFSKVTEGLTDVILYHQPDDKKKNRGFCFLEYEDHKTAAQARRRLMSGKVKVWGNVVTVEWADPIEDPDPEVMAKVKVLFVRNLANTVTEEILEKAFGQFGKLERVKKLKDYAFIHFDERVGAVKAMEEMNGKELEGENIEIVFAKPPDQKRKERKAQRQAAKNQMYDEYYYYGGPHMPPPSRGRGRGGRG

[16] = target: T15, LmjF.35.2550 (Leishmania major) (UniProt E9AF78)
T15 sequence: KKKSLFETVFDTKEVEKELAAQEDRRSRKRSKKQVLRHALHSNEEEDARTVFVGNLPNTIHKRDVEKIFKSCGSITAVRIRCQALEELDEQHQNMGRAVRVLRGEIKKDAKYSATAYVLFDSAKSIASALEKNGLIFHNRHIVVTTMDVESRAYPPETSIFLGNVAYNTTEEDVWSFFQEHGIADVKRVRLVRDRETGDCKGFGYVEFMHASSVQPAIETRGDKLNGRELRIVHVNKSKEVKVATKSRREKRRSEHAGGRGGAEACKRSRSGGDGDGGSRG

Chain of aret (Drosophila melanogaster) (C8VV87 entry or part of it): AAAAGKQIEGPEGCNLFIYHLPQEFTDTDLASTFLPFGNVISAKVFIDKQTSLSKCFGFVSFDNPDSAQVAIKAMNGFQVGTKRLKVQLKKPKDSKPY
Chain of PTBP1 (Homo sapiens) (P26599 other isoform, or with tags, fused parts or gaps): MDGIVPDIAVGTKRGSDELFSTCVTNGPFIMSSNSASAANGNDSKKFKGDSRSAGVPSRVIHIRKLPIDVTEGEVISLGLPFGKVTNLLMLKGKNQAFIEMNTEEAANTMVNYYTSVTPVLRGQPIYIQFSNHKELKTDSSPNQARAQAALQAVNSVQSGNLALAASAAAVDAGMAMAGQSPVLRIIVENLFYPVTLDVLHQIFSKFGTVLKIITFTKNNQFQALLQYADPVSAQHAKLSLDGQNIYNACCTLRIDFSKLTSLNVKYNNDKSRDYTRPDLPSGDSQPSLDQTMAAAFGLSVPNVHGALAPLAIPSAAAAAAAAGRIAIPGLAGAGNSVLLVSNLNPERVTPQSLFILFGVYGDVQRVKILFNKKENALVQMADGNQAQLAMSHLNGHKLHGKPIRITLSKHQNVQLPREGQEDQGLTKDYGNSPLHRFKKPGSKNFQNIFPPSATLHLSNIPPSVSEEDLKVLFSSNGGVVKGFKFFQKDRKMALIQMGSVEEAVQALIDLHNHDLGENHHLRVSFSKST
Chain of SRSF10 (Homo sapiens) (O75494 1-92): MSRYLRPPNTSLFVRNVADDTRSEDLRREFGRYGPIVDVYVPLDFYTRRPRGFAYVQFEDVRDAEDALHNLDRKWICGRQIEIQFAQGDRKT
Chain of e_gw1.09.00.326.1 (Ostreococcus tauri) (A0A090N3Z5 entry or part of it): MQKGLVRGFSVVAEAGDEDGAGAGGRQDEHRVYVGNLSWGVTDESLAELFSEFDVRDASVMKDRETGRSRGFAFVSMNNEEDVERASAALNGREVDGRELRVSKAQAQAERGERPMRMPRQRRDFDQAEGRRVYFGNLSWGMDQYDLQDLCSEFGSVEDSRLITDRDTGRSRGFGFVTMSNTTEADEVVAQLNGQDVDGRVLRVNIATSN
Chain of eIF-2alpha (Drosophila melanogaster) (P41374 whole entry): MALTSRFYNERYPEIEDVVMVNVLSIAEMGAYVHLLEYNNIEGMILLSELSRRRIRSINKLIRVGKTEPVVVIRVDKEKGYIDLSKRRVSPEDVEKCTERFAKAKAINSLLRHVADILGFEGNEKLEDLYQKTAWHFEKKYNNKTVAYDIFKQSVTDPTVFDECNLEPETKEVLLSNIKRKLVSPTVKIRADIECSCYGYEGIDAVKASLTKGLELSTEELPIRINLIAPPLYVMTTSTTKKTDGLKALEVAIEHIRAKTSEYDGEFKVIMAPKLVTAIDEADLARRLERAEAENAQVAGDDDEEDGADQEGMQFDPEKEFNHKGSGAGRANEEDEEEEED

AGAGAAA [RNAcompete motif RNCMPT00090]
binding signal (z-score (mean of top ten 7-mers)) (SRSF10 (Homo sapiens)): 14.3

ACCAUG [RNAcompete motif RNCMPT00259]
binding signal (z-score (mean of top ten 7-mers)) [1]: 19.9

UNUUUGUGU [RNAcompete motif RNCMPT00270]
binding signal (z-score (mean of top ten 7-mers)) [2]: 14.8

UAGGUA [RNAcompete motif RNCMPT00272]
binding signal (z-score (mean of top ten 7-mers)) [3]: 8.77

AGACACA [RNAcompete motif RNCMPT00278]
binding signal (z-score (mean of top ten 7-mers)) [4]: 12.7

AGAAANA [RNAcompete motif RNCMPT00253]
binding signal (z-score (mean of top ten 7-mers)) [5]: 9.59

GAUGAU [RNAcompete motif RNCMPT00279]
binding signal (z-score (mean of top ten 7-mers)) (RBM47 (Gallus gallus)): 8.4

AGACGU [RNAcompete motif RNCMPT00002]
binding signal (z-score (mean of top ten 7-mers)) (ANKHD1 (Homo sapiens)): 22.8

AGAACA [RNAcompete motif RNCMPT00263]
binding signal (z-score (mean of top ten 7-mers)) [6]: 8.19

AAUUUUG [RNAcompete motif RNCMPT00261]
binding signal (z-score (mean of top ten 7-mers)) [7]: 19.4

UGUUUG [RNAcompete motif RNCMPT00258]
binding signal (z-score (mean of top ten 7-mers)) [8]: 7.64

UUUUCU [RNAcompete motif RNCMPT00268]
binding signal (z-score (mean of top ten 7-mers)) (PTBP1 (Homo sapiens)): 6.14

CUCUGU [RNAcompete motif RNCMPT00273]
binding signal (z-score (mean of top ten 7-mers)) [9]: 6.48

AAAACAAA [RNAcompete motif RNCMPT00255]
binding signal (z-score (mean of top ten 7-mers)) [10]: 8.22

UUUUUU [RNAcompete motif RNCMPT00256]
binding signal (z-score (mean of top ten 7-mers)) [11]: 11.2

AGAAAA [RNAcompete motif RNCMPT00257]
binding signal (z-score (mean of top ten 7-mers)) [12]: 12.5

UUUUUU [RNAcompete motif RNCMPT00262]
binding signal (z-score (mean of top ten 7-mers)) [13]: 11.3

GAUGAUU [RNAcompete motif RNCMPT00280]
binding signal (z-score (mean of top ten 7-mers)) [14]: 7.8

AAAUU [RNAcompete motif RNCMPT00281]
binding signal (z-score (mean of top ten 7-mers)) [15]: 7.01

GAACG [RNAcompete motif RNCMPT00254]
binding signal (z-score (mean of top ten 7-mers)) [16]: 15.2
